Experimental data as given in US20140024555A1 (LOS ALAMOS NATIONAL SECURITY, published 2014).

Columns and labels:
[1] = target: T1, YheM subunit of the E. coli YheML construct, with N-terminal 6-His tag (Escherichia coli, UniProt P45531 1-119); assay: colony filtration immobilized bead assay: 6-His subunit captured on Talon resin in agarose, GFP S11 subunit read by complemented GFP fluorescence; YheML construct with YheN omitted
T1 construct: Negative control construct in which YheN is omitted; the first subunit of each construct carries the 6-His tag; also called TusC; first subunit of Yhe ML; not shown: N-terminal 6-His tag from the N-6His pTET S11 vector
T1 sequence: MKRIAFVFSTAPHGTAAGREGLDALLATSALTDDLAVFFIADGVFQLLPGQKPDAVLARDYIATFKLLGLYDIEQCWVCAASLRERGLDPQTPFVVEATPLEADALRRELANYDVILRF

[2] = target: T2, YBGK of Escherichia coli with C-terminal GFP S11 tag (Escherichia coli, UniProt P75745 1-310); assay: colony filtration immobilized bead assay, capture plates with TNG buffer (FIG. 4B); complex 6
T2 construct: Labelled by complementation with co-expressed GFP 1-10 detector; also called last subunit of YBGJ/YBGK (predicted allophanate hydrolase); not shown: flexible linker and C-terminal GFP S11 tag of the pTET S11 vector
T2 sequence: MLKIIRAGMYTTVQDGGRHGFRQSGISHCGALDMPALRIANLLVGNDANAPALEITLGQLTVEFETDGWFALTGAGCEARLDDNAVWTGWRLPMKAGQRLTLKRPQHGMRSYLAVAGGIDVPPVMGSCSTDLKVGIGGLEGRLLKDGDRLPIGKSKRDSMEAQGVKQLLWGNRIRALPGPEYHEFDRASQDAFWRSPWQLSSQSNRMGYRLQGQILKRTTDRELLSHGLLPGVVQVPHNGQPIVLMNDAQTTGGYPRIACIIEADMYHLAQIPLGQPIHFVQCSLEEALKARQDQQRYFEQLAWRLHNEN

B1: YheL subunit of the E. coli YheNML / YheML constructs, with C-terminal GFP S11 tag (other)
chain: MLHTLHRSPWLTDFAALLRLLSEGDELLLLQDGVTAAVDGNRYLESLRNAPIKVYALNEDLIARGLTGQISNDIILIDYTDFVRLTVKHPSQMAW
notes: Fluorescently labelled in the cell by complementation with co-expressed GFP 1-10 detector; also called TusB; last subunit of Yhe NML and Yhe ML; not shown: flexible linker and C-terminal GFP S11 tag (beta-strand 11, residues 215-230) of the pTET S11 vector; the S11 variant an
Does B1 bind [1]?
Result: no binding

B2: YBGJ of Escherichia coli with N-terminal 6-His tag (other)
chain: MQRARCYLIGETAVVLELEPPVTLASQKRIWRLAQRLVDMPNVVEAIPGMNNITVILRNPESLALDAIERLQRWWEESEALEPESRFIEIPVVYGGAGGPDLAVVAAHCGLSEKQVVELHSSVEYVVWFLGFQPGFPYLGSLPEQLHTPRRAEPRLLVPAGSVGIGGPQTGVYPLATPGGWQLIGHTSLSLFDPARDEPILLRPGDSVRFVPQKEGVC
notes: also called predicted allophanate hydrolase; not shown: N-terminal 6-His tag from the N-6His pTET S11 vector
Does B2 bind [2]?
Result: binds
